# In patent US7115556B2, “Use of anti-prolactin agents to treat proliferative conditions” (Greenville Hospital System, priority 1998, dated 2006):
# B1: hPRL-G129R: variant of human prolactin having a substitution of the glycine at position 129 with an arginine residue; prolactin receptor antagonist (protein)
# chain: LPICPGGAARCQVTLRDLFDRAVVLSHYIHNLSSEMFSEFDKRYTHGRGFITKAINSCHTSSLATPEDKEQAQQMNQKDFLSLIVSILRSWNEPLYHLVTEVRGMQEAPEAILSKAVEIEEQTKRLLERMELIVSQVHPETKENEIYPVWSGLPSLQMADEESRLSAYYNLLHCLRRDSHKIDNYLKLLKCRIIHNNNC
# Test system: MDA-MB-134 cells
# Experiment: TUNEL assay, MDA-MB-134
# Format: cell-based, human
# Details: 250 ng G129R, 24 hours
# Protocol: Cell Culture. T-47D cells obtained from ATCC were grown in RPMI 1640 (phenol red free), supplemented with 10% FBS (GIBCO BRL). BT-474 cells were grown in RPMI 1640 medium (phenol red free) supplemented with 10% FBS and ATCC recommended supplements. MCF-7 cells were grown in DMEM medium (phenol red free), supplemented with 10% FBS. The cells were grown at 37° C. in a humid atmosphere in the presence of 5% CO2. The MDA-MB-134 cells were grown in Leibovitz's L-15 medium supplemented with 20% FBS and grown in CO2 free atmosphere. The breast cancer cells were trypsinized (0.02% Trypsin—EDTA) and grown in their respective media (phenol red free) supplemented with 10% CSS (Charcoal stripped serum) for a week. Subsequently the cells were trypsinized again and plated onto an 8 chambered slide system (Lab Tek II) at a confluence of 60–70% per chamber. The next day treatments were performed on the breast cancer cells using their respective media(phenol red free), supplemented with 1% CSS. The MDA-MB-134 VI cells were grown in phenol red containing medium, but with the same serum conditions as the other breast cancer cells.
# Terminal deoxynucleotidly transferase mediated dUTP nick end labeling (TUNEL) assay. Nicks of the fragmented DNA are labeled at their 3-OH ends. The fluorescein-labeled dUTP is incorporated at the 3-OH ends by using the enzyme terminal deoxynucleotidyl transferase. […]
molecule,measurement,value
B1,induction of apoptosis DNA fragmentation,induced apoptosis
